Laboratory results as given in paper PMC10662749.
“Also recorded” adds a separate entry of the source. Where two headings read alike, the source gives them in different places.

Substance	other: neutralisation sensitivity (glycan lost)	other: neutralisation sensitivity, other: maximum % neutralisation (glycan lost)	other results
SARS-CoV-2 spike, B.1.617.2 (Delta): 20 μM swainsonine	–	–	other: pseudovirus infectivity (glycan changed form): no change
SARS-CoV-2 spike, B.1.617.2 (Delta): 50 μM kifunensine	–	–	other: proteolytic processing (glycan changed form): no change; other: pseudovirus infectivity (glycan changed form): decreases
SARS-CoV-2 spike, B.1.617.2 (Delta): GnTI- cells	–	–	other: proteolytic processing (glycan changed form): no change; other: pseudovirus infectivity (glycan changed form): decreases
SARS-CoV-2 spike, B.1.617.2 (Delta): N717Q	–	–	other: pseudovirus infectivity (glycan lost): no change
SARS-CoV-2 spike, B.1.617.2 (Delta): N801Q	–	–	other: pseudovirus infectivity (glycan lost): no change
SARS-CoV-2 spike, BA.1 (Omicron): 20 μM swainsonine	–	–	other: neutralisation sensitivity, other: maximum % neutralisation (glycan changed form): no change, 74 ± 7 vs 54 ± 7; other: proteolytic processing (glycan changed form): no change; other: pseudovirus infectivity, fold_change (glycan changed form): no change
SARS-CoV-2 spike, BA.1 (Omicron): 50 μM kifunensine	–	–	other: proteolytic processing (glycan changed form): no change; other: pseudovirus infectivity, fold_change (glycan changed form): abolishes
SARS-CoV-2 spike, BA.1 (Omicron): GnTI- cells	–	–	other: proteolytic processing (glycan changed form): no change; other: pseudovirus infectivity, fold_change (glycan changed form): abolishes
SARS-CoV-2 spike, BA.1 (Omicron): N17Q	no change	–	–
SARS-CoV-2 spike, BA.1 (Omicron): N61Q	no change	no change, 73 ± 10 vs 79 ± 7	–
SARS-CoV-2 spike, BA.1 (Omicron): N74Q	no change	no change, 77 ± 9 vs 79 ± 7	–
SARS-CoV-2 spike, BA.1 (Omicron): N122Q	no change	decreases, 36 ± 19 vs 79 ± 7	–
SARS-CoV-2 spike, BA.1 (Omicron): N149Q	no change	–	–
SARS-CoV-2 spike, BA.1 (Omicron): N165Q	no change	no change, 79 ± 7 vs 79 ± 7	–
SARS-CoV-2 spike, BA.1 (Omicron): N234Q	–	no change, 87 ± 4 vs 79 ± 7	–
SARS-CoV-2 spike, BA.1 (Omicron): N282Q	no change	–	–
SARS-CoV-2 spike, BA.1 (Omicron): N331Q	no change	–	–
SARS-CoV-2 spike, BA.1 (Omicron): N343Q	no change	no change, 82 ± 6 vs 79 ± 7	–
SARS-CoV-2 spike, BA.1 (Omicron): N603Q	no change	–	–
SARS-CoV-2 spike, BA.1 (Omicron): N616Q	no change	–	–

Substance	other: neutralisation sensitivity (glycan lost)	other: neutralisation sensitivity, other: maximum % neutralisation (glycan lost)	other results
SARS-CoV-2 spike, BA.1 (Omicron): N657Q	no change	–	–
SARS-CoV-2 spike, BA.1 (Omicron): N709Q	no change	–	–
SARS-CoV-2 spike, BA.1 (Omicron): N717A	–	–	other: pseudovirus infectivity, fold_change (glycan lost): decreases
SARS-CoV-2 spike, BA.1 (Omicron): N717Q	–	–	other: proteolytic processing (glycan lost): decreases
SARS-CoV-2 spike, BA.1 (Omicron): N801A	–	–	other: pseudovirus infectivity, fold_change (glycan lost): abolishes
SARS-CoV-2 spike, BA.1 (Omicron): N801Q	–	–	other: proteolytic processing (glycan lost): decreases
SARS-CoV-2 spike, BA.1 (Omicron): N1074Q	no change	no change, 86 ± 13 vs 79 ± 7	other: pseudovirus particle yield (p24) (glycan lost): decreases
SARS-CoV-2 spike, BA.1 (Omicron): N1098Q	no change	no change, 85 ± 7 vs 79 ± 7	other: pseudovirus particle yield (p24) (glycan lost): decreases
SARS-CoV-2 spike, BA.1 (Omicron): N1134Q	no change	no change, 73 ± 15 vs 79 ± 7	–
SARS-CoV-2 spike, BA.1 (Omicron): N1158Q	no change	no change, 86 ± 34 vs 79 ± 7	–
SARS-CoV-2 spike, BA.1 (Omicron): N1173Q	no change	no change, 80 ± 9 vs 79 ± 7	–
SARS-CoV-2 spike, BA.1 (Omicron): N1194Q	no change	no change, 75 ± 11 vs 79 ± 7	–
SARS-CoV-2 spike, BA.4 (Omicron): N717Q	–	–	other: pseudovirus infectivity, fold_change (glycan lost): abolishes
SARS-CoV-2 spike, BA.4 (Omicron): N801Q	–	–	other: pseudovirus infectivity, fold_change (glycan lost): abolishes
SARS-CoV-2 spike, BQ.1.1 (Omicron): N717Q	–	–	other: pseudovirus infectivity, fold_change (glycan lost): abolishes
SARS-CoV-2 spike, BQ.1.1 (Omicron): N801Q	–	–	other: pseudovirus infectivity, fold_change (glycan lost): abolishes
SARS-CoV-2 spike, D614G: 20 μM swainsonine	–	–	other: pseudovirus infectivity (glycan changed form): no change
SARS-CoV-2 spike, D614G: 50 μM kifunensine	–	–	other: neutralisation sensitivity, other: maximum % neutralisation (glycan changed form): no change, 55 ± 9 vs 64 ± 4; other: proteolytic processing (glycan changed form): no change; other: pseudovirus infectivity (glycan changed form): decreases
SARS-CoV-2 spike, D614G: N17Q	no change	–	–
SARS-CoV-2 spike, D614G: N61Q	no change	no change, 61 ± 4 vs 64 ± 4	other: proteolytic processing (glycan lost): decreases; other: pseudovirus infectivity, fold_change (glycan lost): decreases

Substance	other: neutralisation sensitivity (glycan lost)	other: neutralisation sensitivity, other: maximum % neutralisation (glycan lost)	other results
SARS-CoV-2 spike, D614G: N74Q	no change	no change, 62 ± 3 vs 64 ± 4	–
SARS-CoV-2 spike, D614G: N122Q	no change	no change, 62 ± 9 vs 64 ± 4; also recorded: decreases, 29 ± 4 vs 65 ± 7	other: pseudovirus infectivity, fold_change (glycan lost): decreases
SARS-CoV-2 spike, D614G: N149Q	no change	–	–
SARS-CoV-2 spike, D614G: N165Q	no change	–	–
SARS-CoV-2 spike, D614G: N234Q	–	–	other: neutralisation sensitivity, fold_change (glycan lost): decreases
SARS-CoV-2 spike, D614G: N282Q	no change	–	other: neutralisation sensitivity, fold_change (glycan lost): decreases
SARS-CoV-2 spike, D614G: N331Q	no change	no change, 60 ± 4 vs 64 ± 4	–
SARS-CoV-2 spike, D614G: N343Q	no change	–	other: pseudovirus infectivity, fold_change (glycan lost): decreases
SARS-CoV-2 spike, D614G: N603Q	no change	no change, 62 ± 3 vs 64 ± 4	–
SARS-CoV-2 spike, D614G: N616Q	no change	no change, 64 ± 7 vs 64 ± 4	–
SARS-CoV-2 spike, D614G: N657Q	no change	no change, 58 ± 4 vs 64 ± 4	–
SARS-CoV-2 spike, D614G: N709Q	no change	no change, 69 ± 6 vs 64 ± 4	–
SARS-CoV-2 spike, D614G: N717Q	no change	no change, 67 ± 9 vs 64 ± 4; also recorded: decreases, 43 ± 6 vs 65 ± 7	other: pseudovirus infectivity, fold_change (glycan lost): decreases
SARS-CoV-2 spike, D614G: N801Q	no change	no change, 63 ± 4 vs 64 ± 4; also recorded: no change, 74 ± 7 vs 65 ± 7	other: pseudovirus infectivity, fold_change (glycan lost): decreases
SARS-CoV-2 spike, D614G: N1074Q	no change	no change, 61 ± 4 vs 64 ± 4; also recorded: decreases, 45 ± 6 vs 65 ± 7	other: pseudovirus infectivity, fold_change (glycan lost): decreases
SARS-CoV-2 spike, D614G: N1098Q	no change	no change, 69 ± 11 vs 64 ± 4	–
SARS-CoV-2 spike, D614G: N1134Q	no change	no change, 65 ± 5 vs 64 ± 4; also recorded: no change, 65 ± 4 vs 65 ± 7	–
SARS-CoV-2 spike, D614G: N1158Q	no change	no change, 63 ± 3 vs 64 ± 4	–
SARS-CoV-2 spike, D614G: N1173Q	no change	no change, 73 ± 14 vs 64 ± 4; also recorded: decreases, 50 ± 5 vs 65 ± 7	–
SARS-CoV-2 spike, D614G: N1194Q	no change	no change, 66 ± 3 vs 64 ± 4; also recorded: no change, 60 ± 3 vs 65 ± 7	–
